In experiment [1] the target is Dec truncated by the first 20 N-terminal residues (bacteriophage L). The experiment is described as follows: SEC.
Experiment [2] deals with decoration protein (Dec) from bacteriophage L, wild type with N-terminal 6x histidine tag (bacteriophage L). The experiment is described as follows: SEC.
The target in experiment [3] is expanded form (EX) of the P22 virus-like particle (bacteriophage P22) (UniProt P26747). The experiment is described as follows: SPR. In general terms: SPR reads the build-up and loss of mass on a sensor chip optically.
Experiment [4] has the same target. The experiment is described as follows: SEC-MALS. Background: Size exclusion chromatography separates by hydrodynamic size, large species first.
Experiment [5] concerns the target Dec truncated by the first 11 N-terminal residues (bacteriophage L). The experiment is described as follows: SEC.

For orientation: stoichiometry N means a count of units in the complex or per binding partner. Usually Kd stands for the free concentration of one partner at which half of the binding sites on the other are occupied at equilibrium, for simple one-to-one binding. For orientation: koff means a measure of how fast the partners let go of each other. A low value points to slow dissociation. What is called kon is the rate constant with which the complex forms. Low values mean slow association, high ones fast association.

“Dec truncated by the first 20 N-terminal residues (domain or fragment)” gave a stoichiometry N in experiment [1] of 3.

In experiment [2], “decoration protein (Dec) from bacteriophage L, wild type with N-terminal 6x histidine tag (natural protein)” gave a stoichiometry N of 3. For the same substance, in experiment [3], the KD2 (weak site, two-site fit) was found to be 1500 nM; the Kd is 24 nM; the half-life of binding at the tight site is more than 60 h; the ka1 (tight site, two-site fit) was 11500 M⁻¹ s⁻¹. Further, in experiment [3], the ka2 (weak site, two-site fit) stood at 1980 M⁻¹ s⁻¹; the kd1 (tight site, two-site fit) came out at 0.000106 s⁻¹; the off-rate constant (koff) came to 0.00033 s⁻¹; the on-rate constant (kon) turned out to be 13800 M⁻¹ s⁻¹. The stoichiometry N (Dec monomers per particle) in experiment [4] came to 155.

In the case of “Dec fused at its C-terminus to the soluble region of murine CD40L (from UniProt P27548 112-260)”, in experiment [3], the KD1 (tight site, two-site fit) is 30.8 nM; the ka1 (tight site, two-site fit) turned out to be 6440 M⁻¹ s⁻¹; the kd1 (tight site, two-site fit) worked out at 0.0002 s⁻¹. In experiment [4], this substance gave a stoichiometry N (Dec monomers per particle) of 51.

In experiment [5], “Dec truncated by the first 11 N-terminal residues (domain or fragment)” gave a stoichiometry N of 3. In experiment [4], this substance returned a stoichiometry N (Dec monomers per particle) of 214.

In experiment [3], “Dec fused at its C-terminus to the 21 amino acid CD47 mimic Self-peptide” showed a KD1 (tight site, two-site fit) of 18.3 nM and a ka1 (tight site, two-site fit) of 11200 M⁻¹ s⁻¹. The substance further registered a stoichiometry N (Dec monomers per particle) in experiment [4] of 114.
